Test results published in patent US20240342322A1 (NETRIS PHARMA, published 2024).

Molecular target: T1, recombinant human netrin-1 (R&D) (human, UniProt O95631 25-604, limits assumed)
T1 construct: Bought recombinant protein; also called h-netrin-1; human recombinant netrin-1
Assay: bio-layer interferometry

binding result: binds
B1: recombinant human Vitronectin (other, UniProt P04004 20-478, looked up)
chain: DQESCKGRCTEGFNVDKKCQCDELCSYYQSCCTDYTAECKPQVTRGDVFTMPEDEYTVYDDGEEKNNATVHEQVGGPSLTSDLQAQSKGNPEQTPVLKPEEEAPAPEVGASKPEGIDSRPETLHPGRPQPPAEEELCSGKPFDAFTDLKNGSLFAFRGQYCYELDEKAVRPGYPKLIRDVWGIEGPIDAAFTRINCQGKTYLFKGSQYWRFEDGVLDPDYPRNISDGFDGIPDNVDAALALPAHSYSGRERVYFFKGKQYWEYQFQHQPSQEECEGSSLSAVFEHFAMMQRDSWEDIFELLFWGRTSAGTRQPQFISRDWHGVPGQVDAAMAGRIYISGMAPRPSLAKKQRFRHRNRKGYRSQRGHSRGRNQNSRRPSRATWLSLFSSEESNLGANNYDDYRMDWLVPATCEPIQSVFFFSGDKYYRVNLRTRRVDTVDPPYPRSIAQYWLGCPAPGHL
notes: also called h-Vitronectin
